Assay results: patent publication US20240011017A1 (Genentech, published 2024)

T1: HHV8 protein KCP expressed on cells (gD-GPI construct or full-length protein) (Human herpesvirus 8, UniProt Q2HRD4 20-522)
T1 construct: also called HHV8 KCP
T1 sequence: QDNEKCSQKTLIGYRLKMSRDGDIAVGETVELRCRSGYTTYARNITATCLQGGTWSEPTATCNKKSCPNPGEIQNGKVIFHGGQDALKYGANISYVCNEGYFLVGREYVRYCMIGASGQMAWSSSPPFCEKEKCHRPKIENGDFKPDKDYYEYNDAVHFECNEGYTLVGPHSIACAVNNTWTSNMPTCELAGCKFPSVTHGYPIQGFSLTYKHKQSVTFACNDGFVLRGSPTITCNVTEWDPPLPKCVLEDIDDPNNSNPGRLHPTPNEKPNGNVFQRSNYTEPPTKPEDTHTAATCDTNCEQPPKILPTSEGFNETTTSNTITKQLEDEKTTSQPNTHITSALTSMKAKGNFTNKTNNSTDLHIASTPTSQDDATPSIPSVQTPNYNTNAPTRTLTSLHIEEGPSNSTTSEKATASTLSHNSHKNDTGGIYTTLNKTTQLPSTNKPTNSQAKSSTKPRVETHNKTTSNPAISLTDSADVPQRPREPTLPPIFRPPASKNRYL

T2: VZV protein gC, soluble (captured on beads or assayed directly in supernatants) (Varicella zoster virus, UniProt P09256 54-559)
T2 construct: also called VZV gC
T2 sequence: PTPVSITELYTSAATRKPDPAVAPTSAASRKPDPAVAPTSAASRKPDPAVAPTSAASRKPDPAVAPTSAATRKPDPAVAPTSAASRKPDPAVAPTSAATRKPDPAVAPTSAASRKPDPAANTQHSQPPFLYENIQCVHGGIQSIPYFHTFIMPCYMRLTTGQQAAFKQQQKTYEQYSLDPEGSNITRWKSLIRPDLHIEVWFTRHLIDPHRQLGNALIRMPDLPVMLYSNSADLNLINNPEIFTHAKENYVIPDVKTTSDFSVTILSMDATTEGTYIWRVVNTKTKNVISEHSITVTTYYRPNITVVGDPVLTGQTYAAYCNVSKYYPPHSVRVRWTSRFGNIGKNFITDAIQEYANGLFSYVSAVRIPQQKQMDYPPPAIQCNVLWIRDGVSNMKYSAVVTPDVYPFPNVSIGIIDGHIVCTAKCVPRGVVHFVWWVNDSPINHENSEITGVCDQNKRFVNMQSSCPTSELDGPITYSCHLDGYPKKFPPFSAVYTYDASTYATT

B1: FLRT3 (in supernatants) (receptor)
chain: KSCPSVCRCDAGFIYCNDRFLTSIPTGIPEDATTLYLQNNQINNAGIPSDLKNLLKVERIYLYHNSLDEFPTNLPKYVKELHLQENNIRTITYDSLSKIPYLEELHLDDNSVSAVSIEEGAFRDSNYLRLLFLSRNHLSTIPWGLPRTIEELRLDDNRISTISSPSLQGLTSLKRLVLDGNLLNNHGLGDKVFFNLVNLTELSLVRNSLTAAPVNLPGTNLRKLYLQDNHINRVPPNAFSYLRQLYRLDMSNNNLSNLPQGIFDDLDNITQLILRNNPWYCGCKMKWVRDWLQSLPVKVNVRGLMCQAPEKVRGMAIKDLNAELFDCKDSGIVSTIQITTAIPNTVYPAQGQWPAPVTKQPDIKNPKLTKDHQTTGSPSRKTITITVKSVTSDTIHISWKLALPMTALRLSWLKLGHSPAFGSITETIVTGERSEYLVTALEPDSPYKVCMVPMETSNLYLFDETPVCIETETAPLRMYNPTTTLNREQEKEPYKNPNLP
B2: ICAM1 expressed on cells (gD-GPI construct or full-length protein) (receptor)
chain: QTSVSPSKVILPRGGSVLVTCSTSCDQPKLLGIETPLPKKELLLPGNNRKVYELSNVQEDSQPMCYSNCPDGQSTAKTFLTVYWTPERVELAPLPSWQPVGKNLTLRCQVEGGAPRANLTVVLLRGEKELKREPAVGEPAEVTTTVLVRRDHHGANFSCRTELDLRPQGLELFENTSAPYQLQTFVLPATPPQLVSPRVLEVDTQGTVVCSLDGLFPVSEAQVHLALGDQRLNPTVTYGNDSFSAKASVSVTAEDEGTQRLTCAVILGNQSQETLQTVTIYSFPAPNVILTKPEVSEGTEVTVKCEAHPRAKVTLNGVPAQPLGPRAQLLLKATPEDNGRSFSCSATLEVAGQLIHKNQTRELRVLYGPRLDERDCPGNWTWPENSQQTPMCQAWGNPLPELKCLKDGTFPLPIGESVTVTRDLEGTYLCRARSTQGEVTRKVTVNVLSPRYEIVIITVVAAAVIMGTAGLSTYLYNRQRKIKKYRLQQAQKGTPMKPNTQATPP
notes: whole, on cells
B3: LILRB1 (in supernatants) (receptor)
chain: GHLPKPTLWAEPGSVITQGSPVTLRCQGGQETQEYRLYREKKTALWITRIPQELVKKGQFPIPSITWEHAGRYRCYYGSDTAGRSESSDPLELVVTGAYIKPTLSAQPSPVVNSGGNVILQCDSQVAFDGFSLCKEGEDEHPQCLNSQPHARGSSRAIFSVGPVSPSRRWWYRCYAYDSNSPYEWSLPSDLLELLVLGVSKKPSLSVQPGPIVAPEETLTLQCGSDAGYNRFVLYKDGERDFLQLAGAQPQAGLSQANFTLGPVSRSYGGQYRCYGAHNLSSEWSAPSDPLDILIAGQFYDRVSLSVQPGPTVASGENVTLLCQSQGWMQTFLLTKEGAADDPWRLRSTYQSQKYQAEFPMGPVTSAHAGTYRCYGSQSSKPYLLTHPSDPLELVVSGPSGGPSSPTTGPTSTSGPEDQPLTPTGSDPQSGLGRHLGV

Tests used:
[1] = molecular target: T1, HHV8 protein KCP expressed on cells …; experiment: cell-based immunofluorescence validation (FIG. 17): receptor in supernatants, KCP on cells
[2] = molecular target: T2, VZV protein gC, soluble (captured on …); experiment: cell-based immunofluorescence validation (FIGS. 14B and 22): soluble gC on cells with ICAM1

Binder | binding result [1] | binding result [2]
B1 | binds | 
B2 |  | binds
B3 | binds | 
